According to US20190248902A1 (published 2019):

T1: human ASGR-1 (wild type) (human, UniProt P07306 1-291)
T1 construct: also called wt ASGR1; huASGR-1
T1 sequence: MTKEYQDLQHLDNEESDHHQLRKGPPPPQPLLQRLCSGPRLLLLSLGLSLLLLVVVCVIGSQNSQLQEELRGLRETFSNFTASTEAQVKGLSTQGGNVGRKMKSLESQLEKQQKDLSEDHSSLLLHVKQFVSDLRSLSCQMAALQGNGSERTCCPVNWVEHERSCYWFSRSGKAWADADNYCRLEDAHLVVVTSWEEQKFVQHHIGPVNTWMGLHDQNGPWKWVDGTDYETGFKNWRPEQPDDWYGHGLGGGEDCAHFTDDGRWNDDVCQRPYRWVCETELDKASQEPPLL

T2: human ASGR-1 mutant construct H203 (human, UniProt P07306 1-291)
T2 construct: Arg/Glu scanning: non-arginine residues were changed to arginine; Transiently expressed on CHO-S cells
T2 sequence: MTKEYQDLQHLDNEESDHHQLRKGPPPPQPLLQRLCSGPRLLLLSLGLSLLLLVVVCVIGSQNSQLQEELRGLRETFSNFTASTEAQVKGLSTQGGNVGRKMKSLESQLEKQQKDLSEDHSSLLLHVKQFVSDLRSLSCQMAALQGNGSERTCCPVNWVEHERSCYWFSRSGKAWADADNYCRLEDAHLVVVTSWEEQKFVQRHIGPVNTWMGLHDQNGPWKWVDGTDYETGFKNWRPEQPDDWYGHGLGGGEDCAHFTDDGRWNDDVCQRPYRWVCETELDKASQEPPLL


What was measured:
[1] = molecular target: T1, human ASGR-1 (wild type); test: flow cytometry, CHO-S:huASGR-1 cells, 11-point titration
Method: CHO—S stable high-expressing cell line were developed for both human ASGR-1 as well as mouse ASGR-1. A typical 384 well plate multiplex flow cytometery-based cell binding method is described as followed: Parental CHO—S cells and CHO—S:huASGR-1 cells were respectively labeled using a CellTrace CFSE Cell Proliferation Kit (ThermoFisher Catalog #C34554) and CellTrace Violet Cell Proliferation Kit (ThermoFisher Catalog#C34557) CHO—S:muASGR-1 were not labeled. 20 ul of cells at 4C were added to duplicate wells of the 384 well plate. The cells were equally mixed from all three cell lines (30K cells/well). Then 20 ul of the ASGR-1 antibodies (either purified from hybridoma supernatants or made recombinantly) were added in an 11-point dose response using a 1:2 fold serial dilution starting at 100 nM. The cells and antibodies were incubated for 30 min at 4C and then spun down and washed twice with FACS buffer containing 1 mM CaCl2. 30 ul of anti-hulgG-APC secondary antibodies were then added at a 1:1000 dilution) for 30 min at 4C and then washed once with the same buffer. 60 ul of PI (1:1000) was added and then the cells were read by a core flow cytometry facility. The cells were gated first for live cells, then for single cells and finally for the cell dyes to separate the mixed cells into the three different cell populations. Histograms of signal vs count representing the binding profile of each antibody at each antibody concentration were automatically analyzed for the median of the binding signal and then a binding graph was made with log 10 antibody concentration in nM on the X axis with […] from the duplicate wells on the Y-axis. The binding curves were fit with a standard four parameter sigmoidal binding curve and EC50's reported for all graphs with full curves.

[2] = molecular target: T2, human ASGR-1 mutant construct H203; test: FACS ratio: H203 normalized value / wt normalized value
Method: (§1) The ability of human ASGR-1-specific, ligand competing antibodies to bind to the mutant hASGR-1 proteins was assessed by FACS as described above.
(§2) Antibodies were tested for binding to the individual mutant and wild type ASGR-1 constructs using normalized antibody concentrations (5 ug/ml). CHO—S cells transiently expressing the appropriate mutated or non-mutated antigen of interest were mixed with antibody sample or controls, incubated for 1 hour at 4° C., and then washed twice. Cells with bound antibody were then incubated with Alexa Fluor® 647 IgG Fc fragment-specific detection antibody and 7-AAD viability stain for 15 minutes at 4° C., washed once and resuspended in FACS buffer. Samples were analyzed using a BD Accuri™ Flow Cytometer and an Intellicyt HyperCyt Autosampler. As a negative control, supernatants and controls were also screened against CHO—S cells transfected with empty parental vector (referred to as mock). […] Because mutant hASGR-1 expression levels varied relative to each other, sample binding data for each construct was normalized for expression by dividing the binding data from an antibody not affected by the mutations (e.g., 65C12) by the binding values of each test antibody on a given mutant construct. Also, because the antibody binding affinities varied amongst the samples, the expression corrected data (above) was further normalized by comparing test antibody binding on each mutant construct to wild type hASGR-1. Identification of specific mutations that affected test antibody binding was performed by an interquartile range (IQR) analysis to determine statistical outliers. A mutation was identified as a “hit” if the calculated values were >3× the IQR (above the 3rd quartile/upper fence) for a given mutant construct. Although IQR analysis was used here to determine signifance and identify hits, one skilled in the art will recognize that a number of methods could be employed in order to normalize the data (eg. using epitope-tagged constructs or other ASGR-1-binding antibodies directed against non-CBD epitopes).

[3] = molecular target: T2, human ASGR-1 mutant construct H203; test: FACS ratio: 65C12 geomean / this mAb geomean
Method: (§3) Mutant hASGR-1 variants were constructed such that non-arginine residues were changed to arginine and where wild type arginine residues were mutated to glutamic acid. Each mutant hASGR-1 sequence was then cloned into a mammalian expression vector and used to transiently transfect CHOs cells. The ability of human ASGR-1-specific, ligand competing antibodies to bind to the mutant hASGR-1 proteins was assessed by FACS as described above.
(§4) Antibodies were tested for binding to the individual mutant and wild type ASGR-1 constructs using normalized antibody concentrations (5 ug/ml). CHO—S cells transiently expressing the appropriate mutated or non-mutated antigen of interest were mixed with antibody sample or controls, incubated for 1 hour at 4° C., and then washed twice. Cells with bound antibody were then incubated with Alexa Fluor® 647 IgG Fc fragment-specific detection antibody and 7-AAD viability stain for 15 minutes at 4° C., washed once and resuspended in FACS buffer. Samples were analyzed using a BD Accuri™ Flow Cytometer and an Intellicyt HyperCyt Autosampler. As a negative control, supernatants and controls were also screened against CHO—S cells transfected with empty parental vector (referred to as mock). […] Because mutant hASGR-1 expression levels varied relative to each other, sample binding data for each construct was normalized for expression by dividing the binding data from an antibody not affected by the mutations (e.g., 65C12) by the binding values of each test antibody on a given mutant construct. Also, because the antibody binding affinities varied amongst the samples, the expression corrected data (above) was further normalized by comparing test antibody binding on each mutant construct to wild type hASGR-1. Identification of specific mutations that affected test antibody binding was performed by an interquartile range (IQR) analysis to determine statistical outliers. A mutation was identified as a “hit” if the calculated values were >3× the IQR (above the 3rd quartile/upper fence) for a given mutant construct.

[4] = molecular target: T1, human ASGR-1 (wild type); test: FACS ratio: 65C12 geomean / this mAb geomean
Method: as §3, §4

[5] = molecular target: T2, human ASGR-1 mutant construct H203; test: FACS, transfected CHO-S cells, mAb 5 ug/ml
Method: as §1, §2

[6] = molecular target: T1, human ASGR-1 (wild type); test: FACS, transfected CHO-S cells, mAb 5 ug/ml
Method: as §1, §2

| Binder | EC50 [1] | Normalization to wt ASGR1 Binding [2] | Expression Normalization to mAb 65C12 [3] | Expression Normalization to mAb 65C12 [4] | FACS Binding Geomean [5] | FACS Binding Geomean [6] |
| --- | --- | --- | --- | --- | --- | --- |
| 12D2 (antibody, V domains shown, mAb) VH: EVQLVESGGGLVKPGGSLRLSCAASGFTFSSYSMNWVRQAPGKGLEWVSSISSSSSYIYYADSVKGRFTISRDNAKNSLYLQMNSLRAEDTAVYYCARLGDYWGQGTLVAVSS VL: not shown | 3.2 nM |  |  |  |  |  |
| 213B3 (antibody, V domains shown, mAb) VH: QVQLVESGGGVVQPGRSLRLSCAASGFTFSSYGMHWVRQAPGKGLEWVAVIWYDGSNKNYADSVKGRFTISRDNSKNTLYLQMNSLRAEDTAVYYCARDRTVGYDGFDIWGQGTMVTVSS VL: DIQMTQSPSSLSASVGDRVTITCRASQGIGKYLAWFQQKPGKAPKSLISAASSVLSGVPSKFSGSGSGTDFTLTISSLQPEDFATYYCQKYDTYPFTFGPGTKVDIK |  | 0.539 | 2.01 | 3.72 | 12800 | 15100 |
| 146B6 (antibody, V domains shown, mAb) VH: EVQLVESGGGLVQPGGSLRLSCAASGFTFSSYNMNWVRQAPGKGLEWVSYISRSSNTKHYADSVKGRFTISRDNAKNSLYLQMDSLRDEDTAVYYCARDRSGSYGYFYYYGLDVWGQGTTVTVSS VL: not shown |  | 0.769 | 1.79 | 2.32 | 14400 | 24100 |
| 199A7 (antibody, V domains shown, mAb) VH: QVQLVESGGGVVQPGRSLRLSCAASGFTFSNYGMHWVRQAPGKGLEWVAIIWFDGSNKYYADSVKGRFTISRDNSKNTLFLQMSSLRAEDTAVYYCAREWLQFRYYYGMDVWGQGTTVTVSS VL: DIQMTQSPSSLSASVGDRVTITCRASQGIRKDLGWYQQKPGKAPKRLIYAASSLQSGVPSRFSGSGSGTEFTLTISSLQPEDFATYVCLQHYRYPFTFGPGTKVDFK |  | 0.826 | 2.72 | 3.3 | 9460 | 17000 |
| 65C12 (antibody, V domains shown, mAb) VH: EVQLVESGGGLVKPGGSLRLSCAASGFTFRSFSLNWVRQAPGKGLEWVSSISSSSSYIYYADSVKGRFTISRDNAKNSLYLQMNSLRAEDTAVYYCARDAYSHYWGQGTLVTVSS VL: EIVMTQSPATLSVFPGEGATLSCRASQSVSINLAWYQQKPGQAPRLLIYGASTRATGIPARFNASGSGTEFTLSISSLQSENFAVYYCQQYNTWPLTFGGGTKVEIK |  | 1 | 1 | 1 | 25800 | 56100 |
| 198D2 (antibody, V domains shown, mAb) VH: QVQLVESGGGVVQPGRSLRLSCAASGFTFRSYGMHWVRQAPGKGLEWVAVIIYDGSYKYYADSVKGRFTISRDNSKNTLYLQMNSLRAEDTAVYYCARTYSGGMDVWGQGTTVTVSS VL: QSVLTQPPSVSAAPGQKVTISCSGSSSNIGSNYVSWYQQLPGTAPKVLIYDNNKRPSGIPDRFSGSKSGTSATLGITGLQTGDEADYYCGTWDSRLNVGVFGGGTKLTVL | 0.14 nM | 1.09 | 3.61 | 3.32 | 7140 | 16900 |
| 4B1 (antibody, V domains shown, mAb) VH: QVQLQESGPGLVKPSETLSLTCSVSGDSISSYSWSWIRQPAGKGLEWIGRIYTSGSTNYIPSLKSRITMSVDTSKKQFSLKLSSVTAADTAVYYCARDLKSSGCLFFDYWGQGTLVTVSS VL: DIQMTQSPSSLSASVGDRVTITCRASHTIRTYLNWYQQKPGKAPKLLIYAASSLQSGVPSRINGSGSGTDFTLTITNLQPEDFATYYCQQSYNISFTFGPGTKVDIK | 4.1 nM |  |  |  |  |  |
| 65D5 (antibody, V domains shown, mAb) VH: QVQLVQSGAEVKKPGASVKVSCKASGYTFPSYGISWVRQAPGQGLEWMGWISAYSGNTNYAQKLQGRVTMTTDTSTSTAYMELRSLRSDDTAVYFCARGEAVAVFDPWGQGTLVTVSS VL: DIQMTQSPSSLSASVGDRVTITCRASQDINNYLAWFQQKPGKAPRSLIYAASSLHSGVPSQFSASGSGSDFTLTISSLQPEDFATYYCPLYKSYPLTFGPGTKVDIK |  | 0.928 | 1.27 | 1.37 | 20300 | 41000 |
| 85F7 (antibody, V domains shown, mAb) VH: QVQLQQWGAGLLKPSEPLSLTCAVYGGSFSGPYWSWIRQPPGKGLEWIGEINHSGSTNYNPSLKSRVTISVDTSKNQFSLKLTSVTAADTAVYYCARDYGGLDVWGQGTTVTVSS VL: EPVLTQSPGTLSLSPGERATLSCRASQNIYSNYLAWYQQKPGQAPRLLIYGASSRATGIPDRFSGSGSGTDFTLTISRLEPEDFAVYCCQQYESSPWTFGQGTKVEIK |  | 0.917 | 1.56 | 1.7 | 16500 | 33000 |
